In publication PMC3474739, “Novel Frataxin Isoforms May Contribute to the Pathological Mechanism of Friedreich Ataxia” (PLoS ONE, 2012):

B1: human ISCU, mitochondrial mature form (natural protein, UniProt Q9H1K1 35-167, looked up)
chain: YHKKVVDHYENPRNVGSLDKTSKNVGTGLVGAPACGDVMKLQIQVDEKGKIVDARFKTFGCGSAIASSSLATEWVKGKTVEEALTIKNTDIAKELCLPPVKLHCSMLAEDAIKAALADYKLKQEPKKGEAEKK
notes: human ISCU, mitochondrial mature form; source: E. coli BL21(DE3), purified
B2: frataxin isoform II (natural protein, human, UniProt Q16595 76-210, looked up)
chain: MNLRKSGTLGHPGSLDETTYERLAEETLDSLAEFFEDLADKPYTFEDYDVSFGSGVLTVKLGGDLGTYVINKQTPNKQIWLSSPSSGPKRYDWTGKNWVYSHDGVSLHELLAAELTKALKTKLDLSSLAYSGKDA
notes: human frataxin isoform II, 135 amino acids, 14.9 kDa, begins at the second AUG (methionine, 76th aa of the FXN precursor) and runs to the stop codon; Cloned into pET24a(+) with NdeI and XhoI sites; also called FXN II; FXN isoform II; source: E. coli BL21(DE3), purified

How the values were obtained:
Test in all cases: SEC; purified ISCS/ISD11, ISCU and FXN isoform mixed at a molar ratio of 1:1:1, 1 h anaerobically at room temperature, then Superdex200 in 50 mM Tris, 200 mM NaCl, 5 µM PLP, pH 8.0; fractions analysed by SDS-PAGE
Conditions in all cases: both partners purified
ISCS/ISD11 = target: T1, ISCS/ISD11 (human, UniProt Q9Y697 56-457; Q9HD34 1-91)
T1 construct: human mitochondrial ISCS (NFS1) that misses the first 55 amino acids of the precursor (NFS1Δ1-55); human ISD11; Both chains in pACYCDuet-1; also called NFS1Δ1-55 with ISD11; source: E. coli, co-expressed (plasmid pZM90b), purified; also co-expressed with His-ISCU in E. coli BL21(DE3) or CL100(DE3), in lysate

frataxin isoform II = target: B2
[1] = target: B1

T1 sequence (Q9Y697 56-457, chain 1 of 2): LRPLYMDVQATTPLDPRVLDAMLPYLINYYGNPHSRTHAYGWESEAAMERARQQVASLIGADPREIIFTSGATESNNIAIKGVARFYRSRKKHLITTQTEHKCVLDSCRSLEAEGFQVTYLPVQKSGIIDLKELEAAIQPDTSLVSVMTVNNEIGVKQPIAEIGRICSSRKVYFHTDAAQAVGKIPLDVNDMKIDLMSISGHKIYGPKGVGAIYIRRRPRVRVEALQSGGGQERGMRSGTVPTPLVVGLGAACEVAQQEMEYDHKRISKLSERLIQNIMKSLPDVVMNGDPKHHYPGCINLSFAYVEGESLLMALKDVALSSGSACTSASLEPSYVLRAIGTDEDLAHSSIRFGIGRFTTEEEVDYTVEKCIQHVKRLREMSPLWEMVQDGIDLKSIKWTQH
T1 sequence (Q9HD34 whole entry, chain 2 of 2): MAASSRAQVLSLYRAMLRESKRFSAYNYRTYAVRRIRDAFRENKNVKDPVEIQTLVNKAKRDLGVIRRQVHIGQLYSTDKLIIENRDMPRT

binding result (ISCS/ISD11)	binding result [1]	Binder	binding result (frataxin isoform II)
binds		B1	binds
binds	binds	frataxin isoform I, mature form (natural protein, human, UniProt Q16595 81-210, looked up, Cloned into pET24a(+) with NdeI and XhoI sites; also called FXN I; FXN isoform I; source: E. coli BL21(DE3), purified) SGTLGHPGSLDETTYERLAEETLDSLAEFFEDLADKPYTFEDYDVSFGSGVLTVKLGGDLGTYVINKQTPNKQIWLSSPSSGPKRYDWTGKNWVYSHDGVSLHELLAAELTKALKTKLDLSSLAYSGKDA	
binds		B2	
